# Where two headings read alike, the source gives them in different places.
# Experiments:
# [1] = Enzymatic screening: simultaneous assay of the two methylation activities of PapM (ratio r); assay type: biochemical, S. pristinaespiralis
# Excerpt: The ratio of the respective rates V1 and V2 of methylation of L-PAPA and of L-MMPAPA is dependent on the kinetic parameters of PapM (Km1 and Vmax1 for L-PAPA, Km2 and Vmax2 for L-MMPAPA), and is also dependent on the respective concentrations S1 and S2 of L-PAPA and of L-MMPAPA, according to the formula: V1/V2=(Vmax1//Km1)[S1]/(Vmax2/Km2)[S2]
# Simultaneous measurement of the two rates of methylation V1 and V2 at fixed concentrations of S1 and S2 makes it possible to determine the ratio of the kinetic constants of PapM for L-PAPA and L-MMPAPA. This ratio is independent of the amount of PapM used in the assay. When the selectivity of the mutated PapM enzyme increases for L-PAPA, the ratio V1/V2 should increase and, conversely, this ratio should decrease when the mutated PapM enzyme preferentially methylates L-MMPAPA.
# Finally, in order to avoid small variations in Km and to, on the contrary, promote either large variations in Km or modifications in the Vmax values, the concentrations of L-PAPA and L-MMPAPA are fixed at approximately 6 times the Km in order to be under conditions of saturation. Under such conditions, with the wild-type PapM enzyme, the rate of methylation 1 and the rate of methylation 2 are virtually equal.
# The simultaneous assaying of the two methylation activities of PapM is described in example 7.1. This assaying of the methylase activities of PapM is carried out in the presence of 1.5 mM L-PAPA, 3 mM L-MMPAPA and […].
# The 96-well plates of the library of E. coli clones producing the mutated PapM enzymes, prepared as described in example 3, are thawed at 23° C. Next, 25 μl of mixture A are added to the 200 μl of the culture on LB medium contained in each well. Mixture A is obtained by adding successively (1) 3 ml of 50 mM Bis-Tris-Propane buffer, pH 10, in which have been dissolved 12 mg of L-PAPA, and 71 mg of (DL)-MMPAPA in dihydrochloride form and prepared as described in WO 96/01901-A1, (2) 0.7 ml of 4 mM SAM in water, (3) 0.7 ml of [^14C-Me]-SAM at 25 μCi/ml and 60 mCi/mmol (AMERSHAM), (4) 0.6 ml of 100 mM Bis-Tris-Propane buffer, pH 6.8, and (5) 56 mg of the disodium salt of EDTA. The amounts are given for the preparation of a 5 ml volume of mixture A. The plate is then sealed with an adhesive film, and then incubated at 27° C. for 2 hours. The reaction is stopped with 40 μl of a stop solution. The stop solution (for a volume of 4 ml) is obtained by mixing 2.2 ml of a 24 mg/ml sodium heptanesulfonate solution in water with 1.8 ml of concentrated hydrochloric acid. After centrifugation of the plates at 3 000 g for 5 min, approximately 100 μl of the supernatant of each well are analyzed by HPLC in the system described in example 7.1.
# For each well, the respective areas A1 and A2 of the MMPAPA and DMPAPA peaks derived from recording the radiochemical detection are integrated. A ratio r is then calculated in the following way: r=A1/(A1+A2) In the case of the wild-type PapM methylase, r=0.50±0.05.
# [2] = Km and Vmax of purified PapM methylases, methylation 1; assay type: biochemical, S. pristinaespiralis
# Experimental: (§1) The enzyme fractions to be assayed (1 to 20 units) are incubated for 30 min at 27° C. in a total volume of 200 μl of 50 mM bis-tris-propane buffer, pH 6.8, containing SAM (200 μM) the methyl group of which is radioactively labeled with the carbon 14 isotope (2 Ci/mol), in the presence of 4-amino-L-phenylalanine (1 mM) for assaying methylation 1, or of 4-methylamino-L-alanine (2.5 mM) for assaying methylation 2.
# (§2) The reaction is stopped by adding 16 μl of 37% hydrochloric acid and then 20 μl of sodium heptanesulfonate at 240 g/l. After centrifugation, 150 μl of supernatant are injected into the HPLC system in the following gradient mode: • Mobile phase: Eluent A=1.2 g of heptanesulfonate+2.5 ml of glacial acetic acid+water (qs 1 000 ml). Eluent B=1.2 g of sodium heptanesulfonate+2.5 ml of glacial acetic acid+300 ml of acetonitrile+water (qs 1 000 ml). The gradient is produced in the following way: at t=0, 30% of eluent B; t=16 (min), 30% of eluent B; t=17 (min), 100% of eluent B; t=20 min, 100% of eluent B; t=21 min, 30% of eluent B; t=25 (min), 30% of eluent B. • Stationary phase: Nucleosil® C 18 5 μm×4.6 mm column (Macherey-Nagel)
# (§3) On leaving the column, the substrates and products of the enzyme reaction are quantified by absorption at 254 nm. This detection is coupled to an on-line radiochemical detection using a Berthold LB506 detector equipped with a solid scintillation cell of the GT400-U4 type. This makes it possible to specifically follow the incorporation of radioactive methyl groups into the reaction products.
# (§4) The unit of enzyme activity for methylation 1 (and also for methylation 2) is defined as the amount of enzyme required to incorporate 1 nmol of methyl group into 4-amino-L-phenylalanine (or into 4-methylamino-L-phenylalanine).
# (§5) The conditions for assaying the methylation activity are identical to those described in example 7-1, with the exception of the 2 mM concentration of SAM, the methyl group of which is radioactively labeled with the carbon 14 isotope (2 Ci/mol). Concentration ranges varying from 0.1 to 60 mM for each of the substrates 4-amino-L-phenylalanine for methylation 1 and 4-methylamino-L-phenylalanine for methylation 2 are prepared. For each concentration of each substrate, the reaction rate is measured and expressed in nmol converted per hour and per mg of proteins.
# (§6) The values of the kinetics constants are deduced from the Michaelis-Menten curves plotted using the Enzfiter software.
# [3] = Km and Vmax of purified PapM methylases, methylation 2; assay type: biochemical, S. pristinaespiralis
# Experimental: as §1, §2, §3, §4, §5, §6
# [4] = Ratios of kinetic constants and enzyme efficiencies, methylation 1 / methylation 2; assay type: biochemical, S. pristinaespiralis
# Experimental: as §5, §6
# For each mutant form of the enzyme, the enzyme efficiency of each methylation reaction (methylation 1 and methylation 2) was determined. This efficiency is defined by the ratio Vm1/Km1 (methylation 1) or Vm2/Km2 (methylation 2).
# Then, for each form, the ratio of the enzyme efficiencies (methylation reaction 1/methylation reaction 2) was determined. This ratio is equal to Vm1.Km2/Vm2.Km1.
# [5] = Competition assay between the two substrates; assay type: biochemical, S. pristinaespiralis; conditions: both substrates present: 1 mM 4-amino-L-phenylalanine, 2 mM 4-methylamino-L-phenylalanine, 2 mM SAM
# Experimental: The ratio of the rates of conversion of the two competitive substrates is given by the formula: V1/V2=(Kcat1/Km1)[S1]/(Kcat2/Km2)[S2]
# The amount of substrate and of enzyme brought into play is thus avoided by taking care not to convert not more than 2% of each of the substrates.
# Using the same conditions for assaying the methylation activity as those described in example 7-1, with the exception of the concentration of SAM, which is 2 mM, and the methyl group of which is radioactively labeled with the carbon 14 isotope (2.5 Ci/mol), and with the simultaneous presence of the two substrates at the concentrations, for 4-amino-L-phenylalanine, of 1 mM and, for 4-methylamino-L-phenylalanine, of 2 mM, the rate of each of the reactions could thus be determined.
# The assays were carried out simultaneously on the mutants described in examples 4 to 6, using the same substrate solutions.
# [6] = Blanc et al., 1997, cited from earlier work
# [7] = Blanc et al., 1997, cited from earlier work; remark: listed apart in the source
# [8] = purified enzyme, 2 mM SAM, substrate 0.1 to 60 mM
molecule,measurement,setting,value
"4-amino-L-phenylalanine (phenyl N)-methyltransferase (protein, UniProt P72542 1-292, looked up) 4-amino-L-phenylalanine/4-meth …: MTAAAPTLAQALDEATGQLTGAGITADAARADTRLLAAHACQVAPGDLDTCLAGPVPPRFWHYVRRRLTREPAERIVGHAYFMGHRFDLAPGVFVPKPETEEITRDAIARLEALVRRGTTAPLVVDLCAGPGTMAVTLARHVPAARVLGIELSQAAARAARRNARGTGARIVQGDARDAFPELSGTVDLVVTNPPYIPIGLRTSAPEVLEHDPPLALWAGEEGLGMIRAMERTAARLLAPGGVLLLEHGSYQLASVPALFRATGRWSHASSRPTCNDGCLTAVRNHTCAPPA",Ratio (r redetermined),"[1]; 7 sequenced clones, experiment in which wild-type ratio was 0.40",0.40
same,ratio of the two methylation activities (r),"[1]; after recloning of papM genes into pMTL23, E. coli DH5α, same experiment as wild-type",0.40
same,ratio r=A1/(A1+A2) of MMPAPA and DMPAPA peak areas,"[1]; screening of E. coli cultures, 1.5 mM L-PAPA, 3 mM L-MMPAPA",0.50±0.05
same,Km1,[2]; Table 7,0.5
same,Vm1,[2]; Table 7,112 600
same,"Vm1/Km1 (enzyme efficiency, methylation 1)",[2]; Table 7,225 200
same,Vm1 (PAPA),"[2]; purified enzyme, 2 mM SAM",112 600 nmol/h/mg
same,Km1 (PAPA),[2]; [8],0.5 mM
same,Km2,[3]; Table 7,0.55
same,Vm2,[3]; Table 7,114 000
same,"Vm2/Km2 (enzyme efficiency, methylation 2)",[3]; Table 7,207 270
same,Vm2 (MMPAPA),"[3]; purified enzyme, 2 mM SAM",114 000 nmol/h/mg
same,Km2 (MMPAPA),[3]; [8],0.55 mM
same,"ratio of the enzyme efficiencies (methylation reaction 1/methylation reaction 2), Vm1.Km2/Vm2.Km1",[4],1.1
same,Ratio Km2/Km1,[4]; Table 5,1.1
same,Ratio Vm1/Vm2,[4]; Table 5,0.99
same,Vm1 · Km2 / Vm2 · Km1 (ratio of enzyme efficiencies),[4]; Table 7,1.08
same,first methylation reaction relative to the second (selectivity),[5],catalyzes the two reactions in a similar manner
same,maximum velocity (Vmax) for L-PAPA,[6],55 μmol per hour and per mg of PapM
same,Km,[6]; read-out: Michaelis constant (Km) for L-PAPA,240 µM
same,maximum velocity (Vmax) for L-MMPAPA,[7],71 μmol per hour and per mg of PapM
same,Km,[7]; read-out: Michaelis constant (Km) for L-MMPAPA,530 µM

# Source: patent publication US7604970B2, “Variants of the PapM polypeptide of bacteria of the Streptomyces genus” (Aventis Pharma S.A., priority 2002, dated 2009)
